Data as given in paper PMC8058080.

Target: Acaryochloris marina photosystem I (PSI) monomer, 11 subunits (PsaA, PsaB, PsaC, PsaD, PsaE, PsaF, PsaJ, PsaK, PsaL, PsaM, Psa27) (Acaryochloris marina) (UniProt B0C474)
Assay: cryo-EM structure; PSI trimer purified from A. marina; 50 mM MES-NaOH pH 6.5, 5 mM CaCl2, 10 mM MgCl2, 0.002% LMNG; 2.58 Å with C3 symmetrization, 2.97 Å without

Substance: Acaryochloris marina photosystem I (PSI) monomer, 11 subunits (PsaA, PsaB, PsaC, PsaD, PsaE, PsaF, PsaJ, PsaK, PsaL, PsaM, Psa27) (from UniProt B0C474 1-753; B0C475 1-736; B0CB42 1-81; B0C8F1 1-139; B0C5D5 1-89; B0C7S7 1-167; B0C7S6 1-51; B0C7S4 1-153; B0C4H4 1-31) (complex)
- stoichiometry N: 3
